In PMC8374900 (ACS Omega, 2021):

Biological target: the molecule itself
Experiment: AUC

B1: endo_N-BAR L187C (C108A) labeled with A488 (domain or fragment, rat, UniProt O35179 1-247, looked up)
chain: MSVAGLKKQFHKATQKVSEKVGGAEGTKLDDDFKEMERKVDVTSRAVMEIMTKTIEYLQPNPASRAKLSMINTMSKIRGQEKGPGYPQAEALLAEAMLKFGRELGDDANFGPALGEVGEAMRELSEVKDSLDMEVKQNFIDPLQNLHDKDLREIQHHLKKLEGRRLDFDYKKKRQGKIPDEELRQACEKFDESKEIAESSMFNLLEMDIEQVSQLSALVQAQLEYHKQAVQILQQVTVRLEERIRQA
modifications: Alexa Fluor 488 C5-maleimide on the introduced Cys 187
stoichiometry N: 2
